System: MS2 coat protein
Assay: apparent KD of MS2 coat protein; higher = weaker reporter binding
Details: Eterna round: R107
Outline: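 The buffer was 100 mM Tris-HCl pH 7.5 with 80 mM KCl and 4 mM MgCl2, used without or with constant ligand. In it, RNA switches transcribed on-chip from Illumina sequencing clusters were titrated with SNAP-549-labelled MS2 coat protein in twofold steps from 0.7 or 1.5 nM to 3 µM. Apparent KD for each design is the median of its normalised cluster binding-curve fits.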

[1] = input ligand: theophylline 20 uM
[2] = input ligand: theophylline 2 mM
[3] = input ligand: tryptophan 2.4 mM

| Sequence | apparent KD of MS2 coat protein (input ligand: arginine 13.2 mM) | apparent KD of MS2 coat protein (input ligand: none) | apparent KD of MS2 coat protein [1] | apparent KD of MS2 coat protein [2] | apparent KD of MS2 coat protein [3] |
| --- | --- | --- | --- | --- | --- |
| ACAUGAGGAUCACCCAUGUAUCAACGGGAAGGAGCGCCAAACAAGGCAGGUAGGUCGCCCACAUGAGGAUCACCCAUGUGUUGGU [Exclusion Arginine A GF 29] | 20.6 nM | 21.4 nM | 25.8 nM | 24.9 nM | 21.1 nM |
| CUAGAUGGAAACGUCUGGACGCACAAGCGACGAGGACCGGUACGGCCGCCACUCGAAGAGUGGUGGACAUGAGGAUCACCCAUGU [Design 4 MOD] | 36.5 nM | – | 87.4 nM | 78 nM | – |
| ACAUGAGGAUCACCCAUGUAUGACUAUCCUCGAGGACCGGUACGGCCGCCACUCGAACGAGUGGCUCGCGAGUGCGCACUCGCGA [5' end] | 11.7 nM | 13.3 nM | 16.6 nM | 11.3 nM | 10.3 nM |
| GGGUGGUAGGCGGCCGCCACUGAUUUUCAUUCCUGGAUGACAUGAGGAUCACCCAUGUUUACGGGCAGGACCGGGCCUGCUGUGG [aaaW] | 34.8 nM | – | 68.4 nM | 66.6 nM | – |
| UCGUAUGCGGCGGCCGCCACUCGCGGAUAACGAGAGCUUAACAUGAGGAUCACCCAUGUGUCAUGGAGGACCGGGCCCAUUCACA [popmullin] | 30.4 nM | – | 40.2 nM | 37.5 nM | – |
| AUAUUAAUCGGAAGGAGCGGUACAUGAGGAUCACCCAUGUGCGAAGCCAGCAGAUCCCGUUACCAGGUAGGUCGCCGAGUUAUGA [Begebe] | 23.6 nM | 33 nM | 39.8 nM | 37.5 nM | 30.7 nM |
| CAGCACAUGAGGAUCACCCAUGUGAGGGAUACCAGCUCAGGCGUGGGCCCUUGGCAGCUCUGUGGCUGACGAAAGUCAGCCUCUG [#18 SameState-TheophyllineA] | 13.4 nM | 14.6 nM | 17.7 nM | 15.4 nM | 13.4 nM |
| UCGCUCUGGGUGGGAUCCGGAGAUGUGGAAGGAGCGCUGGUUACAGCAGGUAGGUCGCCAACGGACAUGAGGAUCACCCAUGUAC [Same State - Arginine A (Freestyle 16)] | 53.3 nM | 41.3 nM | 49.4 nM | 39.5 nM | 36.2 nM |
| GGAUAGGACACGGCCGCCACUGCGGCUAGAUACUAGCACAUUUCCUCACAUGAGGAUCACCCAUGUAGGACCGGGUGUCCUAUCG | 57.6 nM | – | 122 nM | 89 nM | – |
| GGUACAUGAGGAUCACCCAUGUAUGGGUACCGAGGACCGGUACGGCCGCCACUCGCAGGACAUGAGGAUCACCCAUGUGCAACCG [SSTA DOUBLE!!! :-D #11] | 61 nM | 142 nM | 144 nM | 184 nM | 312 nM |
| AUAUGAUCAUAUGAUACCAGAAAUGGUAUUCCUUUCUUUCUUACAUGAGGAUCACCCAUGUUCCCUUGGCAGCAUAUGAUCAUAU [ETHB #1] | 90.7 nM | – | 210 nM | – | 153 nM |
| GACCGAUUAUAGCGCGAUUGUCUUGUGGAAGGAGCGCAGAGGGCUGCAGGUAGGUCGCCACAUGAGGAUCACCCAUGUCAGGAUA [Ananvediri] | 30.5 nM | 20.2 nM | 53.4 nM | 35.8 nM | 30.9 nM |
| UAUAUUGUGAUGGAUACCAGCAGAGAAAACGUUUAUCCUAACAUGAGGAUCACCCAUGUAUGCCCUUGGCAGCUGUUGUGGUAUA [8.P] | 34.7 nM | – | 55.3 nM | – | 38.6 nM |
| UGUGUCGUCUGAAGGAGCGGCUCUUGAUCCUCGUGAGACAUGAGGAUCACCCAUGUCUCGAGCCAGGUAGGUCGCAGGCGGCACA [#26 Exclusion - Arginine B] | 7.08 nM | 16.2 nM | 12.8 nM | 13.6 nM | 14.1 nM |
| CGUACAUGAGGAUCACCCAUGUAGAGUGAUACCAGUCUACCUAGUGACCCUUGGCAGCACAUCGAUGGCAUCGGUGAUGCCGUUU [Atveti] | 70.1 nM | – | 116 nM | – | 117 nM |
| ACAUGAAGAACAGCGGUGGGCGCGCUCGAUACCAGUAUUUUAAAUUACCCUUGGCAGCGACAUGAGGAUCACCCAUGUGAGAUGA [XTheo A #5] | 22.5 nM | 18.1 nM | 24.8 nM | 33.8 nM | 18 nM |

| Sequence | apparent KD of MS2 coat protein (input ligand: arginine 13.2 mM) | apparent KD of MS2 coat protein (input ligand: none) | apparent KD of MS2 coat protein [1] | apparent KD of MS2 coat protein [2] | apparent KD of MS2 coat protein [3] |
| --- | --- | --- | --- | --- | --- |
| ACAUGAGGAUCACCCAUGUCAGGGCACGAUACCAGCUGAUCCGGUGGCCCUUGGCAGCGUGACGUGUGGUCAUGAGGAUCACCCG [wsmullin] | 283 nM | 520 nM | 642 nM | 638 nM | 464 nM |
| UAGUUGCUGACGGCCGCCACUAGAACAUGAGGAUCACCCAUGUAUUCUAGUGGACAUGGGUGGACUAGGACCGGGUCAGCAACAU [(Trp1)-(Ms2)-(T)'-(M)'-(Trp2)_Design9] | 21 nM | 20.6 nM | 37.8 nM | 21 nM | 30.8 nM |
| UCUGUUUGCUUUGUUUGUUUCUUCUUUGAGCGAGGACCGGUACGGCCGCCACUCGGGUUACAUGAGGAUCACCCAUGUGGUUUCU [Interesting] | 72.3 nM | – | 163 nM | 149 nM | – |
| CAUUAAGUAACUGAUACCAGUGUACUGACAUGAGGAUCACCCAUGUUGGGUUUUGUUGUACACCCUUGGCAGCAGAAUCUUAAUG [AstrosExyTheB#3] | 44.7 nM | – | 70.2 nM | – | 62.2 nM |
| CGGGUUAGGGCGGCCGCCACUGUGGCUACGGUACAUGAGGAUCACCCAUGUUUGUGGUUGAUCUACAGGACCGGGCCCUGACACG [Geusrean] | 440 nM | 102 nM | 865 nM | 2560 nM | 203 nM |
| AUUGUCGUGUCGGCCGCCACUGUCAUGGUUUUCGUGGAAAACAUGAGGAUCACCCAUGUAAUUGACAGGACCGGGACAUGGCGGC [Ricegesoer] | 9.35 nM | – | 11.1 nM | 9.4 nM | – |
| AUAACAUGAGGAUCACCCAUGUAAGCUGAAGGAGCGCUGGAAACAGCAGGUAGGUCGCAGCGGCGACCUUCCUCAUGAAGGUCGC [(M1)-(M2)-(Arg1)-(Arg2)-(A)'-(M)'-(A)''_Design5] | 19.2 nM | 14.2 nM | 25.6 nM | 17 nM | 18.5 nM |
| CCGUUUUAUGGCGACAUAGGGCGGACUGAAGGAGCGGUGAAUAAGCCAGGUAGGUCGCAGAGAUCCACAUGAGGAUCACCCAUGU [!0.aD] | 322 nM | 52.6 nM | 62.2 nM | 63.5 nM | 77.5 nM |
| UUUGAUAGGACAGAUACCAGCGUGUUAUAGAACAUGAGGAUCACCCAUGUAGUGAUCAAGCGCCCUUGGCAGCUGGUUUGUUAGG [7.K] | 119 nM | – | 350 nM | – | 196 nM |
| UUAAUCAAUAUAGAAAACUAUAUUGCAGAAGGAGCGUGAUAAAACACAGGUAGGUCGCUGAAGGGAACAUGAGGAUCACCCAUGU [AstrosSSArgA#5] | 24.8 nM | 23.4 nM | 32.5 nM | 26.3 nM | 26.2 nM |
| UAAAAUAAUAAUGAUACCAGCCCUCCCUCCCGGGACAUGAGGAUCACCCAUGUCUCUCCCGGCCCUUGGCAGCAUAAAUAAUAAU [Same Stare - Theophylline B] | 12.1 nM | – | 15 nM | – | 12.1 nM |
| AUACCGAGUGAGUCGUGUUUCUUUUCAGAUACCAGACUUUUCGUUGUCCCUUGGCAGCUGUUUUACAUGAGGAUCACCCAUGUUG [#28 Exclusion-TheophyllineA] | 16.3 nM | – | 18.1 nM | – | 15.2 nM |
| GCUGCCAUACGAAGGAGCGCUGUUGCAAUGAGGCGAACAUGAGGAUCACCCAUGUGGCAGCAGCAGGUAGGUCGCGUAUGGCAGC [EAB #12] | 33.4 nM | 42.5 nM | 53.6 nM | 52.7 nM | 44.2 nM |
| GUACCACAGUCGGCCGCCACUAAGUUGUAUUCCAGCAGGACGAAACAUGAGGAUCACCCAUGUCCUAGGACCGGGACUUCCGUCG [theeternabot_sameState_MS2_Trp_B_41] | 16.9 nM | – | 25.2 nM | 25.6 nM | – |
| UGUAUGGACUGAAGGAGCGGGUAAAUAACUUGAGGAUCACCCAGGUAAAAGGCGAAAGCCACCCAGGUAGGUCGCAGUCCAUACU | 23.6 nM | 21.1 nM | 32.1 nM | 29.2 nM | 25.5 nM |

Reference: the supplement of paper PMC9170038
